{"source": "paper PMC9672406", "about": "(The Journal of Biological Chemistry, 2022)", "proteins": {"B1": {"name": "MqnA from Streptomyces coelicolor (chorismate dehydratase), wild type (enzyme)", "chain": "DNSRTRPRVGHIQFLNCLPLYWGLARTGTLLDFELTKDTPEKLSEQLVRGDLDIGPVTLVEFLKNADDLVAFPDIAVGCDGPVMSCVIVSQVPLDRLDGARVALGSTSRTSVRLAQLLLSERFGVQPDYYTCPPDLSLMMQEADAAVLIGDAALRANMIDGPRYGLDVHDLGALWKEWTGLPFVFAVWAARRDYAEREPVITRKVHEAFLASRNLSLEEVEKVAEQAARWEAFDEDTLAKYFTTLDFRFGAPQLEAVTEFARRVGPTTGFPADVKVELLKP"}}, "biological_target": "the molecule itself", "test": "AUC", "data": [{"protein": "B1", "values": [{"measurement": "stoichiometry N", "result": 2}]}]}
